The target of this experiment is T1, Avi-human CD38 ECD (human, UniProt P28907 43-300).
T1 construct: eluted as a monomer; also called hCD38; huCD38
In words: ELISA on human CD38 ECD; class A = EC50 0.02 nM - 0.1 nM (table legend).

The values below come from patent US20230312740A1 (VIRTUOSO BINCO, published 2023).

B1: h18E4-19 HC E101A (antibody, name in Kabat numbering, V domains shown)
VH: EVQLLESGGGLVQPGGSLRLSCAASGFSFNNYWIIWIRQAPGKGLEWVAAIYSPSGDIKYYADWAKGRFTVSKDNSKNTVYLQMNSLRAEDTAVYYCARELSGSSYEGYFASWGQGTLVTV
VL: DIQLTQSPSTLSASVGDRVTITCRSSQSVYGHNWLAWYQQKPGKAPKLLMYRASNLASGVPSRFSGSGSGTEFTLTISSVQPDDFATYYCQGYYSGGSYAFGGGTKVEIK
notes: Alanine scan variant of h18E4-19; Kabat numbers, not linear positions of the entry
The molecule B1 came in with a concentration for a half-maximal effect (EC50) of 0.02 to 0.1 nM.

B2: h18E4-19 HC L96A (antibody, name in Kabat numbering, V domains shown)
VH: EVQLLESGGGLVQPGGSLRLSCAASGFSFNNYWIIWIRQAPGKGLEWVAAIYSPSGDIKYYADWAKGRFTVSKDNSKNTVYLQMNSLRAEDTAVYYCAREASGSSYEGYFESWGQGTLVTV
VL: DIQLTQSPSTLSASVGDRVTITCRSSQSVYGHNWLAWYQQKPGKAPKLLMYRASNLASGVPSRFSGSGSGTEFTLTISSVQPDDFATYYCQGYYSGGSYAFGGGTKVEIK
notes: as for B1
For B2, the EC50 is 0.02 to 0.1 nM.

B3: h18E4-19 HC Y100aA (antibody, name in Kabat numbering, V domains shown)
VH: EVQLLESGGGLVQPGGSLRLSCAASGFSFNNYWIIWIRQAPGKGLEWVAAIYSPSGDIKYYADWAKGRFTVSKDNSKNTVYLQMNSLRAEDTAVYYCARELSGSSAEGYFESWGQGTLVTV
VL: DIQLTQSPSTLSASVGDRVTITCRSSQSVYGHNWLAWYQQKPGKAPKLLMYRASNLASGVPSRFSGSGSGTEFTLTISSVQPDDFATYYCQGYYSGGSYAFGGGTKVEIK
notes: as for B1
Regarding B3, the EC50 is 0.02 to 0.1 nM.

B4: h18E4-19 HC S102A (antibody, name in Kabat numbering, V domains shown)
VH: EVQLLESGGGLVQPGGSLRLSCAASGFSFNNYWIIWIRQAPGKGLEWVAAIYSPSGDIKYYADWAKGRFTVSKDNSKNTVYLQMNSLRAEDTAVYYCARELSGSSYEGYFEAWGQGTLVTV
VL: DIQLTQSPSTLSASVGDRVTITCRSSQSVYGHNWLAWYQQKPGKAPKLLMYRASNLASGVPSRFSGSGSGTEFTLTISSVQPDDFATYYCQGYYSGGSYAFGGGTKVEIK
notes: as for B1
On to B4, for which the 50% effective concentration (EC50) was 0.02 to 0.1 nM.

B5: h18E4-19 HC F100eA (antibody, name in Kabat numbering, V domains shown)
VH: EVQLLESGGGLVQPGGSLRLSCAASGFSFNNYWIIWIRQAPGKGLEWVAAIYSPSGDIKYYADWAKGRFTVSKDNSKNTVYLQMNSLRAEDTAVYYCARELSGSSYEGYAESWGQGTLVTV
VL: DIQLTQSPSTLSASVGDRVTITCRSSQSVYGHNWLAWYQQKPGKAPKLLMYRASNLASGVPSRFSGSGSGTEFTLTISSVQPDDFATYYCQGYYSGGSYAFGGGTKVEIK
notes: as for B1
B5 had an EC50 of 0.02 to 0.1 nM.

B6: h18E4-19 HC S99A (antibody, name in Kabat numbering, V domains shown)
VH: EVQLLESGGGLVQPGGSLRLSCAASGFSFNNYWIIWIRQAPGKGLEWVAAIYSPSGDIKYYADWAKGRFTVSKDNSKNTVYLQMNSLRAEDTAVYYCARELSGASYEGYFESWGQGTLVTV
VL: DIQLTQSPSTLSASVGDRVTITCRSSQSVYGHNWLAWYQQKPGKAPKLLMYRASNLASGVPSRFSGSGSGTEFTLTISSVQPDDFATYYCQGYYSGGSYAFGGGTKVEIK
notes: as for B1
B6 came in with an EC50 of 0.02 to 0.1 nM.

B7: h18E4-19 HC S100A (antibody, name in Kabat numbering, V domains shown)
VH: EVQLLESGGGLVQPGGSLRLSCAASGFSFNNYWIIWIRQAPGKGLEWVAAIYSPSGDIKYYADWAKGRFTVSKDNSKNTVYLQMNSLRAEDTAVYYCARELSGSAYEGYFESWGQGTLVTV
VL: DIQLTQSPSTLSASVGDRVTITCRSSQSVYGHNWLAWYQQKPGKAPKLLMYRASNLASGVPSRFSGSGSGTEFTLTISSVQPDDFATYYCQGYYSGGSYAFGGGTKVEIK
notes: as for B1
B7 returned a concentration for a half-maximal effect (EC50) of 0.02 to 0.1 nM.

B8: h18E4-19 HC S97A (antibody, name in Kabat numbering, V domains shown)
VH: EVQLLESGGGLVQPGGSLRLSCAASGFSFNNYWIIWIRQAPGKGLEWVAAIYSPSGDIKYYADWAKGRFTVSKDNSKNTVYLQMNSLRAEDTAVYYCARELAGSSYEGYFESWGQGTLVTV
VL: DIQLTQSPSTLSASVGDRVTITCRSSQSVYGHNWLAWYQQKPGKAPKLLMYRASNLASGVPSRFSGSGSGTEFTLTISSVQPDDFATYYCQGYYSGGSYAFGGGTKVEIK
notes: as for B1
B8 gave an EC50 of 0.02 to 0.1 nM.
